What was measured:
[1] = molecular target: human IR L1-CR-L2/α-CT domains (human) (UniProt P06213); test: ITC
[2] = molecular target: human IR FnIII-1 domain (residues 460-596; C468A, C524A, DFR496-498AAA) (human) (UniProt P06213); test: ITC

Kd [1]: 90 nM | Kd [2]: 760 nM
Substance: insulin WT (ΔB30; desB30 human insulin) (ligand)
